From patent publication US20240270821A1, “GIP/GLP1/GCG TRI-RECEPTOR AGONISTS AND USES THEREOF” (priority 2023, published 2024)
Changes are numbered by the printed parent chain.

T1: human GIP receptor (human) (UniProt P48546)
T1 sequence (looked up): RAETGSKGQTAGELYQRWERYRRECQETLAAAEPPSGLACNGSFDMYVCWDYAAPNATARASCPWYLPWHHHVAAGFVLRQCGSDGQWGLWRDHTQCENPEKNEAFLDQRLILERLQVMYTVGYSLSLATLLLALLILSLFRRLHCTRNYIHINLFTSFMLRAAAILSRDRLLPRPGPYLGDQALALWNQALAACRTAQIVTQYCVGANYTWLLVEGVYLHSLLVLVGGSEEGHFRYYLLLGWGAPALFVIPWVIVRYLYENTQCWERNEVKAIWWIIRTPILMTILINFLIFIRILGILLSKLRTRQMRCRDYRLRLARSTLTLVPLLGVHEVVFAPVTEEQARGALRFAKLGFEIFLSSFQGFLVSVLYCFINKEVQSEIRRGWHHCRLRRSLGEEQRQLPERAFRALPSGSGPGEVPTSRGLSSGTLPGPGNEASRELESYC

B1: Example 116 (peptide)
chain: YXQGTFTSDFSXXLDKKAQXAFIEYLLEAGPSSGEPPPSEG
modifications: synthetic construct; SITE 2: note = 2-Aminoisobutyric Acid; SITE 12: note = L-ornithine; SITE 13: note = alpha-methyl-leucine; SITE 17: note = Lysine is chemically modified through conjugation of the epsilon-amino group of the Lysine side chain with (2-[2-(2-Amino-ethoxy)-ethoxy]-acetyl)2-(gamma-Glu)
B2: Example 118 (peptide)
chain: B1 chain with A29G, E35A, S39G, G41S
modifications: synthetic construct; SITE 2: note = 2-Aminoisobutyric Acid; SITE 12: note = L-ornithine; SITE 13: note = alpha-methyl-leucine; SITE 17: note = Lysine is chemically modified through conjugation of the epsilon-amino group of the Lysine side chain with (2-[2-(2-Amino-ethoxy)-ethoxy]-acetyl)2-(gamma-Glu)
B3: Example 113 (peptide)
chain: YXQGTFTSDXSRXLDKKAQXAFIEYLLAGGPSSGAPPPSGE
modifications: synthetic construct; SITE 2: note = 2-Aminoisobutyric Acid; SITE 10: note = 3-(4-Pyridyl)-L-alanine; SITE 13: note = alpha-methyl-leucine; SITE 17: note = Lysine is chemically modified through conjugation of the epsilon-amino group of the Lysine side chain with (2-[2-(2-Amino-ethoxy)-ethoxy]-acetyl)
B4: Example 114 (peptide)
chain: B3 chain with A28E, G29X
modifications: synthetic construct; SITE 2: note = 2-Aminoisobutyric Acid; SITE 10: note = 3-(4-Pyridyl)-L-alanine; SITE 13: note = alpha-methyl-leucine; SITE 17: note = Lysine is chemically modified through conjugation of the epsilon-amino group of the Lysine side chain with (2-[2-(2-Amino-ethoxy)-ethoxy]-acetyl)
B5: Example 136 (peptide)
chain: B3 chain with X10F, R12X, Y25W, A28E, P36X
modifications: synthetic construct; SITE 2: note = 2-Aminoisobutyric Acid; SITE 12: note = L-ornithine; SITE 13: note = alpha-methyl-leucine; SITE 17: note = Lysine is chemically modified through conjugation of the epsilon-amino group of the Lysine side chain with (2-[2-(2-Amino-ethoxy)-ethoxy]-acetyl)-(gamma-Glu)
B6: Example 143 (peptide)
chain: B3 chain with X10F, A28E, E41S
modifications: synthetic construct; SITE 2: note = 2-Aminoisobutyric Acid; SITE 13: note = alpha-methyl-leucine; SITE 17: note = Lysine is chemically modified through conjugation of the epsilon-amino group of the Lysine side chain with (2-[2-(2-Amino-ethoxy)-ethoxy]-acetyl)-(gamma-Glu)-CO-(CH2) 16-CO2H; SITE 20: n
B7: Example 129 (peptide)
chain: B1 chain with E35A, E40G, G41E
modifications: synthetic construct; SITE 2: note = 2-Aminoisobutyric Acid; SITE 12: note = L-ornithine; SITE 13: note = alpha-methyl-leucine; SITE 17: note = Lysine is chemically modified through conjugation of the epsilon-amino group of the Lysine side chain with (2-[2-(2-Amino-ethoxy)-ethoxy]-acetyl)-(gamma-Glu)
B8: Example 141 (peptide)
chain: B3 chain with X10F, R12K, A28E, E41S
modifications: synthetic construct; SITE 2: note = 2-Aminoisobutyric Acid; SITE 13: note = alpha-methyl-leucine; SITE 17: note = Lysine is chemically modified through conjugation of the epsilon-amino group of the Lysine side chain with (2-[2-(2-Amino-ethoxy)-ethoxy]-acetyl)-(gamma-Glu)-CO-(CH2) 16-CO2H; SITE 20: n

Biological target: hGLP-1R (Homo sapiens, UniProt P43220)
Sequence (P43220 24-463): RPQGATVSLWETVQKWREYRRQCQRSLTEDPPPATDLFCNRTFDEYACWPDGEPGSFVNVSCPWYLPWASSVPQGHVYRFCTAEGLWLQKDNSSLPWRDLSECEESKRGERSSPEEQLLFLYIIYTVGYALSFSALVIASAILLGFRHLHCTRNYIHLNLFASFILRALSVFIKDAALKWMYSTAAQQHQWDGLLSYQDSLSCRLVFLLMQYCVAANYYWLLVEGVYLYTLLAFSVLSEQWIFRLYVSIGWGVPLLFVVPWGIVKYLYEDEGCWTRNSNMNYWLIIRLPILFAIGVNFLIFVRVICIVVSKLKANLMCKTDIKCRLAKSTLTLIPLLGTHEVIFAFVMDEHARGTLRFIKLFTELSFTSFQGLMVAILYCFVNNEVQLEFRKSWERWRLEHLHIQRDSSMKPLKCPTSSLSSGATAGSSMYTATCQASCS
Test: cell-based or functional assay

Binder	Relative cAMP EC50	cAMP Rel EC50, nM (in the presence of 1% HSA)
B1	7.83 nM	401 nM
B2	6.03 nM	1450 nM
B3	3.93 nM	467 nM
B4		1370 nM
B5	3.8 nM	625 nM
B6	2.44 nM	594 nM
B7	1.87 nM	284 nM
B8	1.96 nM	562 nM

Biological target: T1, human GIP receptor (human)
Test: cell-based or functional assay

Binder	Relative cAMP EC50	cAMP Rel EC50, nM (in the presence of 1% HSA)
B1	0.382 nM	40.4 nM
B2	0.43 nM	63.4 nM
B3	0.24 nM	32.3 nM
B4		19.6 nM
B5	0.221 nM	32.9 nM
B6	0.211 nM	63.9 nM
B7	0.134 nM	24.3 nM
B8	0.21 nM	62.1 nM

Biological target: human GLP-1R (SNAP-GLP-1R expressed in HEK293 cells) (human) (UniProt P43220)
Sequence (P43220 24-463): as above
Test: cell-based or functional assay

Binder	GLP1R Internalization EC50	Internalization % TOP
B1	80.7 nM	46.2%
B2	82.3 nM	46.4%
B3	39.5 nM	64.6%
B4	47.2 nM	62.9%
B5	36.1 nM	37.8%
B6	337 nM	43%
B7	22.5 nM	40.6%
B8	95.3 nM	64.1%

Biological target: human glucagon receptor (human) (UniProt P47871)
Sequence (P47871 26-477): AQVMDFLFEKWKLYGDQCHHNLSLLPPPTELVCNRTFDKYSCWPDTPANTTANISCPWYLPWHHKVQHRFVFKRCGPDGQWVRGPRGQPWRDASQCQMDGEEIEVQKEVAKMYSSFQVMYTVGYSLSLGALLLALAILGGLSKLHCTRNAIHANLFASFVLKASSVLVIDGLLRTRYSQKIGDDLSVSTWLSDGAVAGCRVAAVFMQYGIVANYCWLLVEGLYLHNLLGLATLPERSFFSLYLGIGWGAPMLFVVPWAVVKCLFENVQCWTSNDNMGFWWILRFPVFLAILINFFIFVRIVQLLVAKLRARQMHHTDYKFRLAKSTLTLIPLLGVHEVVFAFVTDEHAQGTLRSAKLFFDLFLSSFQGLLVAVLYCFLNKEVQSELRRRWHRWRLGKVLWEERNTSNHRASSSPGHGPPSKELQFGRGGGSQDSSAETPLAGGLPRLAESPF
Test: cell-based or functional assay

Binder	Relative cAMP EC50	cAMP Rel EC50, nM (in the presence of 1% HSA)
B1	3.96 nM	882 nM
B2	7.02 nM	2460 nM
B3	12 nM	2090 nM
B4		1120 nM
B5	8.73 nM	960 nM
B6	4.51 nM	1690 nM
B7	2.01 nM	510 nM
B8	1.77 nM	877 nM
